# Source: article PMC4569481, “Pseudomonas aeruginosa Uses Dihydrolipoamide Dehydrogenase (Lpd) to Bind to the Human Terminal Pathway Regulators Vitronectin and Clusterin to Inhibit Terminal Pathway Complement Attack” (PLoS ONE, 2015)
# B1: vitronectin, monomeric, purified from human plasma (natural protein)
# chain: DQESCKGRCTEGFNVDKKCQCDELCSYYQSCCTDYTAECKPQVTRGDVFTMPEDEYTVYDDGEEKNNATVHEQVGGPSLTSDLQAQSKGNPEQTPVLKPEEEAPAPEVGASKPEGIDSRPETLHPGRPQPPAEEELCSGKPFDAFTDLKNGSLFAFRGQYCYELDEKAVRPGYPKLIRDVWGIEGPIDAAFTRINCQGKTYLFKGSQYWRFEDGVLDPDYPRNISDGFDGIPDNVDAALALPAHSYSGRERVYFFKGKQYWEYQFQHQPSQEECEGSSLSAVFEHFAMMQRDSWEDIFELLFWGRTSAGTRQPQFISRDWHGVPGQVDAAMAGRIYISGMAPRPSLAKKQRFRHRNRKGYRSQRGHSRGRNQNSRRPSRATWLSLFSSEESNLGANNYDDYRMDWLVPATCEPIQSVFFFSGDKYYRVNLRTRRVDTVDPPYPRSIAQYWLGCPAPGHL
# notes: vitronectin, human, purified from plasma; In the MST experiment labelled with NT-647 RED-NHS; Plasma vitronectin circulates as variants of 75 and 65 kDa; also called Vn; full-length vitronectin; source: bought: Corning, purified from human plasma
# B2: clusterin, purified from human plasma (natural protein)
# chain 1: DQTVSDNELQEMSNQGSKYVNKEIQNAVNGVKQIKTLIEKTNEERKTLLSNLEEAKKKKEDALNETRESETKLKELPGVCNETMMALWEECKPCLKQTCMKFYARVCRSGSGLVGRQLEEFLNQSSPFYFWMNGDRIDSLLENDRQQTHMLDVMQDHFSRASSIIDELFQDRFFTREPQDTYHYLPFSLPHRRPHFFFPKSRIVR
# chain 2: SLMPFSPYEPLNFHAMFQPFLEMIHEAQQAMDIHFHSPAFQHPPTEFIREGDDDRTVCREIRHNSTGCLRMKDQCDKCREILSVDCSTNNPSQAKLRRELDESLQVAERLTRKYNELLKSYQWKMLNTSSLLEQLNEQFNWVSRLANLTQGEDQYYLRVTTVASHTSDSDVPSGVTEVVVKLFDSDPITVTVPVEVSRKNPKFMETVAEKALQEYRKKHREE
# notes: Disulfide-linked heterodimer of one alpha and one beta chain of 40 kDa each; In the MST experiment labelled with NT-647 RED-NHS; source: bought: BioVision, purified from human plasma; copies: 1 + 1
# B3: Dihydrolipoamide dehydrogenase (Lpd) of P. aeruginosa, recombinant full length (Lpd^1-478) (natural protein)
# chain: MSQKFDVVVIGAGPGGYVAAIRAAQLGLKTACIEKYIGKEGKVALGGTCLNVGCIPSKALLDSSYKYHEAKEAFKVHGIEAKGVTIDVPAMVARKANIVKNLTGGIATLFKANGVTSFEGHGKLLANKQVEVTGLDGKTQVLEAENVIIASGSRPVEIPPAPLTDDIIVDSTGALEFQAVPKKLGVIGAGVIGLELGSVWARLGAEVTVLEALDKFLPAADEQIAKEALKVLTKQGLNIRLGARVTASEVKKKQVTVTFTDANGEQKETFDKLIVAVGRRPVTTDLLAADSGVTLDERGFIYVDDHCKTSVPGVFAIGDVVRGAMLAHKASEEGVMVAERIAGHKAQMNYDLIPSVIYTHPEIAWVGKTEQTLKAEGVEVNVGTFPFAASGRAMAANDTTGLVKVIADAKTDRVLGVHVIGPSAAELVQQGAIGMEFGTSAEDLGMMVFSHPTLSEALHEAALAVNGHAIHIANRKKR
# notes: On the gel two bands, 57 and 50 kDa
# Legend:
# Details in all cases: both partners purified
# [1] = target: Lpd deletion mutant Lpd^141-478 (P. aeruginosa strain PAO1, UniProt Q9I3D1 141-478); assay: ELISA; equimolar amounts (13.3 nM) of full length Lpd and Lpd deletion mutants immobilized on microtiter plates; vitronectin or clusterin added; bound ligand quantified with antibodies
# [2] = target: Lpd deletion mutant Lpd^264-478 (P. aeruginosa strain PAO1, UniProt Q9I3D1 264-478); assay: as above
# [3] = target: T1, Lpd deletion mutant Lpd^1-160 (P. aeruginosa strain PAO1, UniProt Q9I3D1 1-160); assay: as above
# T1 construct: Dihydrolipoamide dehydrogenase (Lpd), P. aeruginosa strain PAO1, residues 1-160; also called Lpd^1-160: 20 kDa; N-terminal Lpd^1-160
# [4] = target: B3; assay: ELISA; two human ligands added together to immobilized Lpd, one at a constant concentration (vitronectin 5 μg/ml, clusterin 2.5 μg/ml, Factor H 5 μg/ml or plasminogen 5 μg/ml), the other at increasing concentrations; each detected with its own antibody
# [5] = target: B3; assay: MST; fluid phase; NT-647-labeled vitronectin (50 nM) or clusterin (25 nM) mixed with Lpd in 1:2 dilutions (0.001 to 50 μM); 50 mM Tris-HCl pH 7.6, 150 mM NaCl, 10 mM MgCl2, 0.05% Tween-20; RT; 50% LED power, 80% MST power
# [6] = target: B1; assay: ELISA; equimolar amounts (13.3 nM) of full length Lpd and Lpd deletion mutants immobilized on microtiter plates; vitronectin or clusterin added; bound ligand quantified with antibodies
# [7] = target: B2; assay: as above
# Factor H = target: T2, Factor H (human, UniProt P08603 19-1231); assay: ELISA; two human ligands added together to immobilized Lpd, one at a constant concentration (vitronectin 5 μg/ml, clusterin 2.5 μg/ml, Factor H 5 μg/ml or plasminogen 5 μg/ml), the other at increasing concentrations; each detected with its own antibody
# T2 construct: complement Factor H, human; source: bought: Complement Technology
# T2 sequence (P08603 19-1231): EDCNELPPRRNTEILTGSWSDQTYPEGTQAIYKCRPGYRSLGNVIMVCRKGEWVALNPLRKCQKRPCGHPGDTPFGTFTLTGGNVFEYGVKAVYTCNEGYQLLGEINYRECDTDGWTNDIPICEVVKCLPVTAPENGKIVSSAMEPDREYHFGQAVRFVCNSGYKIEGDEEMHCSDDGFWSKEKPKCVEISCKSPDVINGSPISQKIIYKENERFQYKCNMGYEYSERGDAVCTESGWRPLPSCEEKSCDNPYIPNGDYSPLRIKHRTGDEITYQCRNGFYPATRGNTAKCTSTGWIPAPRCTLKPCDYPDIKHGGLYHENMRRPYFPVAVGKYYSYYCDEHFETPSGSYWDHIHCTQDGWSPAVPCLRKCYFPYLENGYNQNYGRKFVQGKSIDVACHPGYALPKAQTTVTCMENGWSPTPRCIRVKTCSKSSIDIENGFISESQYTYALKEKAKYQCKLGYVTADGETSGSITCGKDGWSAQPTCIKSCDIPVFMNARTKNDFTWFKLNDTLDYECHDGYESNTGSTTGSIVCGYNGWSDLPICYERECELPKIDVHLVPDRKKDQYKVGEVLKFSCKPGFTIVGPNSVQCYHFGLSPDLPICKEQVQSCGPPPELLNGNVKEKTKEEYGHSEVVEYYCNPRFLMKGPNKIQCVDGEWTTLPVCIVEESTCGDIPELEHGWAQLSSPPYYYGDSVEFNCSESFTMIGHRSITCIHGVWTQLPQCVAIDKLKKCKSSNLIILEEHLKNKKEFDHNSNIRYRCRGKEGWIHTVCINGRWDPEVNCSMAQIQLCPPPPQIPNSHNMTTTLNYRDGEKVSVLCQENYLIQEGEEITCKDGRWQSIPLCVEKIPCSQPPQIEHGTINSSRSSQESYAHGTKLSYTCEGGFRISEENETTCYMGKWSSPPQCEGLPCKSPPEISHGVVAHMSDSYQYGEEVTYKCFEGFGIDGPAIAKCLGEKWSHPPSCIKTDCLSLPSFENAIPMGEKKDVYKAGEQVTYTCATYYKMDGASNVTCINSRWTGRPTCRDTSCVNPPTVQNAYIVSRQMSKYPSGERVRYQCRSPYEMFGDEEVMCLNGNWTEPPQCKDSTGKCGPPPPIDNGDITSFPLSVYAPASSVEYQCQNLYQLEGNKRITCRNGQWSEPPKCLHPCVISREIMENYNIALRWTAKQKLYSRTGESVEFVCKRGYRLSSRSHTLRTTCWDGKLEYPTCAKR
binder,measurement,setting,value
B1,percent reduction of binding (ELISA signal),[1],47%
same,percent reduction of binding (ELISA signal),[2],47%
same,percent reduction of binding (ELISA signal),[3],51%
same,percent reduction of Factor H binding to Lpd by vitronectin at four-fold molar excess,[4],37%
same,Kd,[5],600 ± 50 nM
"Lpd deletion mutant Lpd^1-287 (domain or fragment, P. aeruginosa strain PAO1, UniProt Q9I3D1 1-287, looked up, Dihydrolipoamide dehydrogenase (Lpd), P. aeruginosa strain PAO1, residues 1-287; also called Lpd^1-287: 37 kDa) MSQKFDVVVIGAGPGGYVAAIRAAQLGLKTACIEKYIGKEGKVALGGTCLNVGCIPSKALLDSSYKYHEAKEAFKVHGIEAKGVTIDVPAMVARKANIVKNLTGGIATLFKANGVTSFEGHGKLLANKQVEVTGLDGKTQVLEAENVIIASGSRPVEIPPAPLTDDIIVDSTGALEFQAVPKKLGVIGAGVIGLELGSVWARLGAEVTVLEALDKFLPAADEQIAKEALKVLTKQGLNIRLGARVTASEVKKKQVTVTFTDANGEQKETFDKLIVAVGRRPVTTDLL",binding result,[6],binds
B2,Kd,[5],654 ± 54 nM
"Lpd deletion mutant Lpd^1-382 (domain or fragment, P. aeruginosa strain PAO1, UniProt Q9I3D1 1-382, looked up, Dihydrolipoamide dehydrogenase (Lpd), P. aeruginosa strain PAO1, residues 1-382; also called Lpd^1-382: 53 kDa) MSQKFDVVVIGAGPGGYVAAIRAAQLGLKTACIEKYIGKEGKVALGGTCLNVGCIPSKALLDSSYKYHEAKEAFKVHGIEAKGVTIDVPAMVARKANIVKNLTGGIATLFKANGVTSFEGHGKLLANKQVEVTGLDGKTQVLEAENVIIASGSRPVEIPPAPLTDDIIVDSTGALEFQAVPKKLGVIGAGVIGLELGSVWARLGAEVTVLEALDKFLPAADEQIAKEALKVLTKQGLNIRLGARVTASEVKKKQVTVTFTDANGEQKETFDKLIVAVGRRPVTTDLLAADSGVTLDERGFIYVDDHCKTSVPGVFAIGDVVRGAMLAHKASEEGVMVAERIAGHKAQMNYDLIPSVIYTHPEIAWVGKTEQTLKAEGVEVNV",binding result,[6],binds
same,binding result,[7],binds
B3,binding result,Factor H,binds
